Test results taken from US20250326865A1, “C-MET PROTEIN-BINDING PEPTIDE COMPLEX” (PeptiDream Inc., priority 2021, published 2025).
Starred links: 1 amine or outer side, 2 acyl side, 3 side chain; linkers in the order of their positions; H or OH if unused. Positions of bridges follow the written chain, without caps; N, C: chain ends. Non-standard residues stand in square brackets, D forms with d. Residues, ends and D or L forms follow the SMILES beside them. Primed or numbered codes have the meaning given here. Chains are numbered I, II in the order given. No end group written: not given here. OCOPEG13OCO = 3,6,9,12,15,18,21,24,27,30,33-undecaoxapentatriacontane-1,35-diylbis(bicarbonate); X1 = O=C(OCCOCCOCCOCCOCCOCCOCCOCCOCCOCCOCCOCCOC(=O)[*:2])[*:1]; NMeF = CN[C@@H](Cc1ccccc1)C(=O)O; Ahp(2) = CCCCC[C@H](N)C(=O)O; NMeC = CN[C@@H](CS)C(=O)O; Ahp′ = not defined here

What was measured:
[1] = test system: Normal human umbilical vein vascular endothelial cells (HUVECs); assay type: cell-based; conditions: HUVEC, cultured for 2 days after addition, FIG. 2; read-out: EC50 (HUVEC cell proliferation)
Description: In order to evaluate the biological activity of the peptide complex of the present invention, the cell proliferation inducing activity was verified. Normal human umbilical vein vascular endothelial cells (HUVECs) were cultured using HuMedia-EG2 (KURABO INDUSTRIES LTD.). After cells were detached using Accutase (Innovative cell technologies), they were resuspended in a Medium without serum or growth factors (Cell system) containing 5% FBS (MBL), seeded into a 96-well plate at 10000 cells per well, and cultured overnight. The next day, a complex (GFs_c-Met-00014336-PEG13 dimer; peptide complex no. 49 in Table 4) of the peptide (SEQ ID NO: 34) synthesized in Example 2 and a linker (SEQ ID NO: 37), or Recombinant Human HGF Protein (R&D systems) as a control was added and cultured for another 2 days. The medium was then removed and the cell count was determined quantitatively using the CellTiter-Glo (registered trademark) Luminescent Cell Viability Assay reagent (Promega) according to the protocol provided. A SpectraMax (registered trademark) Paradigm (registered trademark) multimode microplate reader (Molecular Devices, LLC.) was used for detection. The obtained signal value was analyzed by GraphPad Prism, and EC50 was calculated.

HGF R = biological target: T1, HGF R (Homo sapiens, UniProt P08581); assay: Human Phospho-RTK array assay in A431 cells; assay type: cell-based; conditions: 10 minutes of stimulation, 2 nM complex, 7.8 nM HGF
T1 construct: endogenous in cells; host or cells: A431
Description: A431 cells were cultured in DMEM high glucose, GlutaMAX (registered trademark) Supplement, pyruvate (Thermo Fisher Scientific), containing 10% FBS (Gibco). After cells were detached using Accutase (registered trademark) (Innovative cell technologies), they were seeded into a 6-well plate at 1000000 cells per well and cultured overnight.
The next day, for starvation, the culture medium was changed to DMEM high glucose, GlutaMAX (registered trademark) Supplement, pyruvate (Thermo Fisher Scientific), containing an assay medium (0.1% BSA (Sigma-Aldrich)), and the cells were cultured overnight. Then, 7.8 nM Recombinant Human HGF Protein (R&D systems) or 2 nM complex (GFs_c-Met 00014336-PEG9 dimer; peptide complex No. 51 in Table 4) of peptide (SEQ ID NO: 34) synthesized in Example 2 and a linker (SEQ ID NO: 36) was added, and after 10 minutes of stimulation, cells were lysed in a Lysis Buffer provided in the Proteome Profiler Human Phospho-RTK Array Kit (R & D systems). Thereafter, the procedure was performed according to the protocol of the kit, and chemiluminescent signals by WesternSure (registered trademark) PREMIUM chemiluminescent substrate kit (LI-COR) were detected using C-DiGit (registered trademark) (Scrum).
In (2) in FIG. 5, a is the result of no addition, b is of addition of HGF, and c of addition of the peptide complex.

c-Met = biological target: T2, c-Met (Homo sapiens, UniProt P08581); assay: Phospho-c-Met AlphaLISA assay (c-Met agonist activity) in A431 cells; assay type: cell-based; conditions: phospho-c-Met AlphaLISA, A431 cells, FIG. 1; read-out: EC50 (c-Met agonist activity)
T2 construct: endogenous in cells; host or cells: A431 (human)
Description: To evaluate the activation potency (c-Met agonist activity) of c-Met of the peptide complex of the present invention, the phosphorylation of c-Met was verified. Human A431 cells were cultured in DMEM high glucose, GlutaMAX (registered trademark) Supplement, pyruvate (Thermo Fisher Scientific), containing 10% FBS (Gibco). After cells were detached using Accutase (Innovative cell technologies), they were seeded into a 96-well plate at 10000 cells per well and cultured overnight. The next day, for starvation, the culture medium was changed to DMEM high glucose, GlutaMAX (registered trademark) Supplement, pyruvate (Thermo Fisher Scientific), containing 0.1% BSA (Sigma-Aldrich), and the cells were cultured overnight. Then, the peptide complex synthesized in Example 3 or Recombinant Human HGF Protein (R&D systems) as a control was added, and after 15 minutes of stimulation, cells were lysed in a Lysis Buffer provided in the AlphaLISA (registered trademark) SureFire (registered trademark) Ultra™ Phospho-c-Met (Tyr1234/1235) kit (PerkinElmer). The assay was performed according to the kit protocol, and a SpectraMax (registered trademark) Paradigm (registered trademark) multimode microplate reader (Molecular Devices, LLC.) was used for signal detection. […] In the same manner, the C50 value was calculated by GraphPad Prism as the concentration of peptide showing 50% activity of the signal induced by HGF. […] Further, for a complex (GFs_c-Met-00014336-PEG13 dimer; complex no. 49 in Table 4) of a peptide (SEQ ID NO: 34) and a linker (SEQ ID NO: 37), a graph of c-Met agonist activity is shown in FIG. 1.

[2] = test system: Renal proximal tubule epithelial cells (RPTEC); assay: Evaluation of tube formation in collagen gel; assay type: cell-based
Description: Renal proximal tubule epithelial cells (RPTEC) were cultured in a growth medium (Renal Epithelial Cell Basal Medium (REBM)+0.5% FBS+2.4 mM L-Alanyl-L-Glutamine+10 nM Triiodothyronine+10 ng/mL rh EGF+100 ng/mL Hydrocortisone Hemisuccinate+5 μg/mL rh Insulin+1 μM Epinephrine+5 μg/mL Transferrin) (ATCC). The cells were detached using Trypsin-EDTA, and then resuspended in an assay medium (REBM+0.5% FBS+2.4 mM L-Alanyl-L-Glutamine+10 nM Triiodothyronine+100 ng/mL Hydrocortisone Hemisuccinate+1 μM Epinephrine+5 μg/mL Transferrin+1.8 mM CaCl2).
RPTECs were resuspended in a mixture of Cellmatrix (registered trademark) Type I-A (Nitta Gelatin Inc.), concentrated culture solution (Nitta Gelatin Inc.) and a reconstitution buffer solution (Nitta Gelatin Inc.) on ice according to the instructions. […]
To the assay medium, 2 nM HGF, 1.6 nM EGF or a complex GFs_c-Met-00014336-PEG13 dimer; peptide complex No. 49 in Table 4) of a peptide (SEQ ID NO: 34) synthesized in Example 2 and a linker (SEQ ID NO: 37) at 0.08, 0.4, 2, and 10 nM, was added and 400 μL of each resultant mixture was added to each well of 48-well plate to which the gelated suspension had been added as mentioned above. […] The presence or absence of tube formation was observed and evaluated using a phase-contrast microscope on the third day and the eighth day of the start of the culturing.

human c-Met protein [3] = biological target: T3, human c-Met protein (human, UniProt P08581 25-1390); assay: cell-based or functional assay
human c-Met protein [4] = biological target: T3, human c-Met protein; assay: cell-based or functional assay; remark: listed apart in the source

T3 sequence (P08581 25-1390): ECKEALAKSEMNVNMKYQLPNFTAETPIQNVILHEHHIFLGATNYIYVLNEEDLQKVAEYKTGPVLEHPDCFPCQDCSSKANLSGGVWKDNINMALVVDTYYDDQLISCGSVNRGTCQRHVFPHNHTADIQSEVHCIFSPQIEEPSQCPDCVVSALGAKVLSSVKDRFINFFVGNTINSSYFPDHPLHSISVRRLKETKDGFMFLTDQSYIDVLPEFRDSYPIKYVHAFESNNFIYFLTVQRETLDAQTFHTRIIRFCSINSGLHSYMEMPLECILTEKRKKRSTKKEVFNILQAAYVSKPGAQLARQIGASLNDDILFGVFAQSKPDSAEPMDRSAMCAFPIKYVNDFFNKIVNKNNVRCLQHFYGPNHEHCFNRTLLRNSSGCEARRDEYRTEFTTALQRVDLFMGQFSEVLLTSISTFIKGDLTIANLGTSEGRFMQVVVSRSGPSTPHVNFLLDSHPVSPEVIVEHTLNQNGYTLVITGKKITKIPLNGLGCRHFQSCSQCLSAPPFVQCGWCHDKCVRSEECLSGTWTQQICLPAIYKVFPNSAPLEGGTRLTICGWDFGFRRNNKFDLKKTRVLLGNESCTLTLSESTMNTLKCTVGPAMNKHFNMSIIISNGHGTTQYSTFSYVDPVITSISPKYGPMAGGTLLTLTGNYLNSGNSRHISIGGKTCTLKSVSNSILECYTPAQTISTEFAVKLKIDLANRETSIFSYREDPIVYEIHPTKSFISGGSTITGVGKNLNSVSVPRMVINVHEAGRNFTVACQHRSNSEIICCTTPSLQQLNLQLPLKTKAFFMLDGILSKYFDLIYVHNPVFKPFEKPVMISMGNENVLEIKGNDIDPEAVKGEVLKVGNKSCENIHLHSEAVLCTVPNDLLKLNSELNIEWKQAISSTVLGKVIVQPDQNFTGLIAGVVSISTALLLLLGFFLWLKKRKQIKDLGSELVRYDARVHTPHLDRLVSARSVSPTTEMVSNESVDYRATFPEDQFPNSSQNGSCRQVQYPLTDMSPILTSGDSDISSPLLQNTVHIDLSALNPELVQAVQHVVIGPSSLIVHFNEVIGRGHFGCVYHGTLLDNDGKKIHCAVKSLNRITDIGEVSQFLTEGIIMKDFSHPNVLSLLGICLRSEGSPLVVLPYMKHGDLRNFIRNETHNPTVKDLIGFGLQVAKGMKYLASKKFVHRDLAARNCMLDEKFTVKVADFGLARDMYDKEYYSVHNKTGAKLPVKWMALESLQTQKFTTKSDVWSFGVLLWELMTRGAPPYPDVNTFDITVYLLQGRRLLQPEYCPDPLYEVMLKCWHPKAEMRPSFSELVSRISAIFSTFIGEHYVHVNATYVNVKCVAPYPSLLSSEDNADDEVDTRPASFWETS
T1 sequence (P08581 25-1390): as above
T2 sequence (P08581 25-1390): as above

Molecule: HGF: Recombinant Human HGF Protein (R&D systems), hepatocyte growth factor, used as a control
- EC50 [1]: 0.37 nM
- specific phosphorylation pattern of receptor tyrosine kinases (HGF R): Only HGF R was specifically phosphorylated
- EC50 (c-Met): 0.66 nM

Molecule: CCCCC[C@@H]1NC(=O)[C@H](CC(=O)O)NC(=O)[C@H](CCC(=O)O)NC(=O)[C@H](CC(=O)O)NC(=O)[C@H](Cc2ccccc2)N(C)C(=O)[C@H](CO)NC(=O)[C@H](C(C)C)NC(=O)[C@H](C)NC(=O)[C@H]([C@@H](C)O)NC(=O)[C@H](Cc2ccccc2)N(C)C(=O)CSC[C@@H](C(=O)NCC(=O)N[C@@H](CCCCNC(=O)OCCOCCOCCOCCOCCOCCOCCOCCOCCOCCOCCOCCOC(=O)NCCCC[C@H](NC(=O)CNC(=O)[C@@H]2CSCC(=O)N(C)[C@@H](Cc3ccccc3)C(=O)N[C@@H]([C@@H](C)O)C(=O)N[C@@H](C)C(=O)N[C@@H](C(C)C)C(=O)N[C@@H](CO)C(=O)N(C)[C@@H](Cc3ccccc3)C(=O)N[C@@H](CC(=O)O)C(=O)N[C@@H](CCC(=O)O)C(=O)N[C@@H](CC(=O)O)C(=O)N[C@@H](CCCCC)C(=O)N3CCC[C@H]3C(=O)N[C@@H](CCCNC(=N)N)C(=O)N[C@@H](Cc3c[nH]c4ccccc34)C(=O)N[C@@H](CO)C(=O)N2C)C(N)=O)C(N)=O)N(C)C(=O)[C@H](CO)NC(=O)[C@H](Cc2c[nH]c3ccccc23)NC(=O)[C@H](CCCNC(=N)N)NC(=O)[C@@H]2CCCN2C1=O [compound 49] (I: {CH2CO}-[NMeF]TAVS[NMeF]DED[Ahp(2)]PRWS[NMeC]GK-NH2 / II: {CH2CO}-[NMeF]TAVS[NMeF]DED[Ahp(2)]PRWS[NMeC]GK-NH2; linker I:17-II:17 via X1 (inferred); thioether I:N-I:15, II:N-II:15 (inferred); C-terminus assumed)
- EC50 [1]: 0.55 nM
- tube formation ([2]; RPTEC in collagen gel, 0.08-10 nM, third and eighth day, phase-contrast microscope): promoted tube formation
- tube formation with branching ([2]; RPTEC, 10 nM complex, eighth day (f of FIG. 4)): not only tube formation but also branch formation was promoted

Molecule: 51 ({CH2CO}-[NMeF]TAVS[NMeF]DED[Ahp′]PRWS[NMeC]; thioether N-15 (inferred); not fully specified; reading uncertain; also: conjugated moiety via linker) [compound 51]
- specific phosphorylation pattern of receptor tyrosine kinases (HGF R): Only HGF R was specifically phosphorylated

B1: GFs_c-Met-00014336-PEG13 dimer (peptide SEQ ID NO: 34, GFs_c-Met-00014336p; linker SEQ ID NO: 37) (peptide)
peptide: {CH2CO}-[NMeF]TAVS[NMeF]DED[Ahp(2)]PRWS[NMeC]
chain: GK[OCOPEG13OCO]KG
modifications: thioether I:N-I:15 (inferred); also: homodimer: two cyclic peptides joined by linker G-K-OCOPEG13OCO-K-G, peptide C-terminus on linker
- EC50, HUVEC cell proliferation (CellTiter-Glo) (human c-Met protein [3]): 0.55 nM
- EC50, phospho-c-Met AlphaLISA, A431 cells (FIG. 1) (human c-Met protein [3]): 0.72 nM
- C-Met Agonist Activity (C50; nM): phospho-c-Met AlphaLISA, A431 cells (human c-Met protein [4]): 0.67 nM
